Experimental data taken from patent US20260028421A1 (JIANGSU HENGRUI PHARMACEUTICALS, published 2026).

Tests used:
Test in all cases: ELISA
hPDL1 = hPDL1 (human, UniProt Q9NZQ7 19-238)
hCTLA4 = hCTLA4 (human, UniProt P16410 36-161)
hTSLP = hTSLP (human, UniProt Q969D9 29-159)
hIL5 = hIL5 (human, UniProt P05113 20-134)

hPDL1, sequence (Q9NZQ7 19-238 limits assumed): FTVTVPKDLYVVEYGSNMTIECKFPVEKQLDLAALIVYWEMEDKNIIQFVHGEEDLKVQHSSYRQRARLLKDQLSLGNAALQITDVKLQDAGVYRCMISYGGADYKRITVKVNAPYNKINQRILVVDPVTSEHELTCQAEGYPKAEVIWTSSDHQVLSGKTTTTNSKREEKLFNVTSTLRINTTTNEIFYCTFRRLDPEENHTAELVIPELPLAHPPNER
hCTLA4, sequence (P16410 36-161 limits assumed): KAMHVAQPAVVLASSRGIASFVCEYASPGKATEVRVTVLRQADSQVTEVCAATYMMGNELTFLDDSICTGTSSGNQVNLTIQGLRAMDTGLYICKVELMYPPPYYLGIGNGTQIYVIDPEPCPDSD

Row | Binder | EC50 (hPDL1) [nM] | EC50 (hCTLA4) [nM] | EC50 (hTSLP) [nM] | EC50 (hIL5) [nM]
1 | PL-18 (bispecific antibody) chain 1: not shown chain 2: DIVLTQSPASLAVSPGQRATITCRASESVSIHGTHLMHWYQQKPGQPPKLLIYAASKLESGVPARFSGSGSGTDFTLTINPVEAEDTANYYCQQSFEDPLTFGQGTKLEIKRTVASGIPPKIECLPIDISIDEGKCLTVASAFTGEPTPEVTWSTGGRKIHSQEQGRFHIENTDDSTTLTIKDVQKQDGGLYTLTLRNEFGSDSATVNIHIRSI chain 3: not shown chain 4: not shown | 1.6 | 6.7 |  | 
2 | PL-19 (bispecific antibody) chain 1: not shown chain 2: DIVLTQSPASLAVSPGQRATITCRASESVSIHGTHLMHWYQQKPGQPPKLLIYAASKLESGVPARFSGSGSGTDFTLTINPVEAEDTANYYCQQSFEDPLTFGQGTKLEIKRTVASGIPPKIECLPIDISIDEGKVLTVASCFTGEPTPEVTWSTGGRKIHSQEQGRFHIENTDDSTTLTIKDVQKQDGGLYTLTLRNEFGSDSATVNIHIRSI chain 3: not shown chain 4: not shown | 1.6 | 6.5 |  | 
3 | HJ-3 (bispecific antibody) chain 1: not shown chain 2: DIQMTQSPSSVSASVGDRVTITCRASQDIANYLSWYQQKPGKSPKLLIYGTSNLEVGVPSRFSGSRSGTDFTLTISSLQPEDFATYYCLQDKEFPRTFGGGTKVEIKGGGGSSGAPRFLTRPLAFVVSVGKDATLSSQIVGNPTPQVSWEKDKQPVTAGARFRLAQDGDLYRLKILDLQLSDSGQYVSRARNAIGEAFACLGLQVDAEA chain 3: EVQLVQSGAEVKKPGSSVKVSCKASGYTFSNYLIEWVRQAPGQGLEWIGVIDPGVGDTNYNENFKGRATLTADKSTSTAYIELSSLRSEDTAVYYCAREDNTGTAFDYWGQGTTVTVSSASTKGPSVFPLAPSSKSTSGGTAALGCLVKDYFPEPVTVSWNSGALTSGVHTFPAVLQSSGLYSLSSVVTVPSSSLGTQTYICNVNHKPSNTKVDKKVEPKSCDKTHTCPPCPAPEAAGGPSVFLFPPKPKDTLMISRTPEVTCVVVDVSHEDPEVKFNWYVDGVEVHNAKTKPREEQYNSTYRVVSVLTVLHQDWLNGKEYKCKVSNKALPAPIEKTISKAKGQPREPQVCTLPPSREEMTKNQVSLSCAVKGFYPSDIAVEWESNGQPENNYKTTPPVLDSDGSFFLVSKLTVDKSRWQQGNVFSCSVMHEALHNHYTQKSLSLSPGKDYKDDDDK chain 4: SIVMTQTPLSLSVTPGQPASISCKASQSVSSDVTWYLQKPGQSPQLLIYYVSEHYTGVPDRFSGSGYGTDFTLKISRVEAEDVGVYYCQQHHRFPLTFGQGTKLEIKRTVAAPSVFIFPPSDEQLKSGTASVVCLLNNFYPREAKVQWKVDNALQSGNSQESVTEQDSKDSTYSLSSTLTLSKADYEKHKVYACEVTHQGLSSPVTKSFNRGEC |  |  | 3.23 | 17.4
4 | HJ-5 (bispecific antibody) chain 1: not shown chain 2: DIQMTQSPSSVSASVGDRVTITCRASQDIANYLSWYQQKPGKSPKLLIYGTSNLEVGVPSRFSGSRSGTDFTLTISSLQPEDFATYYCLQDKEFPRTFGGGTKVEIKGGGGSSGAPRFLTRPKASVVSVGKDATLSSQIVGNPFPQVSWEKDKQPVTAGVRFRLAQDGDLYRLKILDLQLSDSGQYVSRARNAHGEAFACLGLQVDAEA chain 3: EVQLVQSGAEVKKPGSSVKVSCKASGYTFSNYLIEWVRQAPGQGLEWIGVIDPGVGDTNYNENFKGRATLTADKSTSTAYIELSSLRSEDTAVYYCAREDNTGTAFDYWGQGTTVTVSSASTKGPSVFPLAPSSKSTSGGTAALGCLVKDYFPEPVTVSWNSGALTSGVHTFPAVLQSSGLYSLSSVVTVPSSSLGTQTYICNVNHKPSNTKVDKKVEPKSCDKTHTCPPCPAPEAAGGPSVFLFPPKPKDTLMISRTPEVTCVVVDVSHEDPEVKFNWYVDGVEVHNAKTKPREEQYNSTYRVVSVLTVLHQDWLNGKEYKCKVSNKALPAPIEKTISKAKGQPREPQVCTLPPSREEMTKNQVSLSCAVKGFYPSDIAVEWESNGQPENNYKTTPPVLDSDGSFFLVSKLTVDKSRWQQGNVFSCSVMHEALHNHYTQKSLSLSPGK chain 4: SIVMTQTPLSLSVTPGQPASISCKASQSVSSDVTWYLQKPGQSPQLLIYYVSEHYTGVPDRFSGSGYGTDFTLKISRVEAEDVGVYYCQQHHRFPLTFGQGTKLEIKRTVAAPSVFIFPPSDEQLKSGTASVVCLLNNFYPREAKVQWKVDNALQSGNSQESVTEQDSKDSTYSLSSTLTLSKADYEKHKVYACEVTHQGLSSPVTKSFNRGEC |  |  | 2.64 | 16
5 | HJ-6 (bispecific antibody) chain 1: not shown chain 2: DIQMTQSPSSVSASVGDRVTITCRASQDIANYLSWYQQKPGKSPKLLIYGTSNLEVGVPSRFSGSRSGTDFTLTISSLQPEDFATYYCLQDKEFPRTFGGGTKVEIKGGGGSSGAPRFLTCPKASVVSVGKDATLSSQIVGNPFPQVSWEKDKQPVTAGVRFRLAQDGDLYRLKILDLQLSDSGQYVSRARNAHGEAFACLGLQVDAEA chain 3: EVQLVQSGAEVKKPGSSVKVSCKASGYTFSNYLIEWVRQAPGQGLEWIGVIDPGVGDTNYNENFKGRATLTADKSTSTAYIELSSLRSEDTAVYYCAREDNTGTAFDYWGQGTTVTVSSASTKGPSVFPLAPSSKSTSGGTAALGCLVKDYFPEPVTVSWNSGALTSGVHTFPAVLQSSGLYSLSSVVTVPSSSLGTQTYICNVNHKPSNTKVDKKVEPKSCDKTHTCPPCPAPEAAGGPSVFLFPPKPKDTLMISRTPEVTCVVVDVSHEDPEVKFNWYVDGVEVHNAKTKPREEQYNSTYRVVSVLTVLHQDWLNGKEYKCKVSNKALPAPIEKTISKAKGQPREPQVCTLPPSREEMTKNQVSLSCAVKGFYPSDIAVEWESNGQPENNYKTTPPVLDSDGSFFLVSKLTVDKSRWQQGNVFSCSVMHEALHNHYTQKSLSLSPGK chain 4: SIVMTQTPLSLSVTPGQPASISCKASQSVSSDVTWYLQKPGQSPQLLIYYVSEHYTGVPDRFSGSGYGTDFTLKISRVEAEDVGVYYCQQHHRFPLTFGQGTKLEIKRTVAAPSVFIFPPSDEQLKSGTASVVCLLNNFYPREAKVQWKVDNALQSGNSQESVTEQDSKDSTYSLSSTLTLSKADYEKHKVYACEVTHQGLSSPVTKSFNRGEC |  |  | 2.88 | 37
6 | HJ-7 (bispecific antibody) chain 1: not shown chain 2: DIQMTQSPSSVSASVGDRVTITCRASQDIANYLSWYQQKPGKSPKLLIYGTSNLEVGVPSRFSGSRSGTDFTLTISSLQPEDFATYYCLQDKEFPRTFGGGTKVEIKGGGGSSGAPRFLTRPKASVVSVGKDATLSCQIVGNPFPQVSWEKDKQPVTAGVRFRLAQDGDLYRLKILDLQLSDSGQYVCRARNAHGEAFACLGLQVDAEA chain 3: EVQLVQSGAEVKKPGSSVKVSCKASGYTFSNYLIEWVRQAPGQGLEWIGVIDPGVGDTNYNENFKGRATLTADKSTSTAYIELSSLRSEDTAVYYCAREDNTGTAFDYWGQGTTVTVSSASTKGPSVFPLAPSSKSTSGGTAALGCLVKDYFPEPVTVSWNSGALTSGVHTFPAVLQSSGLYSLSSVVTVPSSSLGTQTYICNVNHKPSNTKVDKKVEPKSCDKTHTCPPCPAPEAAGGPSVFLFPPKPKDTLMISRTPEVTCVVVDVSHEDPEVKFNWYVDGVEVHNAKTKPREEQYNSTYRVVSVLTVLHQDWLNGKEYKCKVSNKALPAPIEKTISKAKGQPREPQVCTLPPSREEMTKNQVSLSCAVKGFYPSDIAVEWESNGQPENNYKTTPPVLDSDGSFFLVSKLTVDKSRWQQGNVFSCSVMHEALHNHYTQKSLSLSPGK chain 4: SIVMTQTPLSLSVTPGQPASISCKASQSVSSDVTWYLQKPGQSPQLLIYYVSEHYTGVPDRFSGSGYGTDFTLKISRVEAEDVGVYYCQQHHRFPLTFGQGTKLEIKRTVAAPSVFIFPPSDEQLKSGTASVVCLLNNFYPREAKVQWKVDNALQSGNSQESVTEQDSKDSTYSLSSTLTLSKADYEKHKVYACEVTHQGLSSPVTKSFNRGEC |  |  | 2.18 | 17.7
